These results are taken from patent US20200317807A1.

The target of one assay is T1, CD70 (human) (UniProt P32970).
T1 sequence: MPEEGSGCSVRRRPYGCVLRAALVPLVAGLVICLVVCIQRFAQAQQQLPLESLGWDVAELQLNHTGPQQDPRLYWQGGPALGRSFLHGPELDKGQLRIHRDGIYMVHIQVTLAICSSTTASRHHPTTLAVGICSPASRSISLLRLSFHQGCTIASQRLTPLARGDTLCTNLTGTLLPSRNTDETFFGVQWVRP
The assay is described as follows: cell-based or functional assay.

In a further assay the target is mouse CD70 (mouse) (UniProt O55237). Nature of the assay: cell-based or functional assay.
Chain of UniProt O55237 (O55237 whole entry): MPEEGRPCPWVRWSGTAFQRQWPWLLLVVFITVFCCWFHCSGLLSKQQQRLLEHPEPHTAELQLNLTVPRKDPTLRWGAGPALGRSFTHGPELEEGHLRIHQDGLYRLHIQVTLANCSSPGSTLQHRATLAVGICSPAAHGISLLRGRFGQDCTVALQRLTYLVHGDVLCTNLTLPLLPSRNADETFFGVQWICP

B1: full length (f) CD27-CD3ζ CAR (full-length human CD27 and a human CD3ζ T cell intracellular signaling domain) (receptor)
chain: ATPAPKSCPERHYWAQGKLCCQMCEPGTFLVKDCDQHRKAAQCDPCIPGVSFSPDHHTRPHCESCRHCNSGLLVRNCTITANAECACRNGWQCRDKECTECDPLPNPSLTARSSQALSPHPQPTHLPYVSEMLEARTAGHMQTLADFRQLPARTLSTHWPPQRSLCSSDFIRILVIFSGMFLVFTLAGALFLHQRRKYRSNKGESPVEPAEPCRYSCPREEEGSTIPIQEDYRKPEPACSPRVKFSRSADAPAYQQGQNQLYNELNLGRREEYDVLDKRRGRDPEMGGKPRRKNPQEGLYNELQKDKMAEAYSEIGMKGERRRGKGHDGLYQGLSTATKDTYDALHMQALPPR
In the assay with CD70 (human), B1 displayed an IFN-γ (pg/ml), co-culture with 624/CD70 (CD70 Positive) of 6480 pg/mL; an IFN-γ (pg/ml), co-culture with RCC 1581 (CD70 Pos) of 11800 pg/mL; an IFN-γ (pg/ml), co-culture with RCC 2095R (CD70 Pos) of 5820 pg/mL; an IFN-γ (pg/ml), co-culture with RCC 2219R (CD70 Pos) of 12100 pg/mL. For the same molecule, in the assay with CD70 (human), the IFN-γ (pg/ml), co-culture with RCC 2245R (CD70 Pos) turned out to be 9110 pg/mL; the IFN-γ (pg/ml), co-culture with RCC 2246R (CD70 Pos) stood at 8220 pg/mL; the IFN-γ (pg/ml), co-culture with RCC 2261R (CD70 Pos) is 7270 pg/mL; the IFN-γ (pg/ml), co-culture with RCC 2361R (CD70 Pos) stood at 2260 pg/mL. Further, in the assay with CD70 (human), the IFN-γ (pg/ml), co-culture with RCC 2654R (CD70 Pos) is 7890 pg/mL and the IFN-γ (pg/ml), co-culture with RCC 2657R (CD70 Pos) worked out at 3510 pg/mL.

B2: mCD27-CD3ζ CAR (full-length mouse CD27 and a mouse CD3ζ T cell intracellular signaling domain) (receptor)
chain: PNSCPDKHYWTGGGLCCRMCEPGTFFVKDCEQDRTAAQCDPCIPGTSFSPDYHTRPHCESCRHCNSGFLIRNCTVTANAECSCSKNWQCRDQECTECDPPLNPALTRQPSETPSPQPPPTHLPHGTEKPSWPLHRQLPNSTVYSQRSSHRPLCSSDCIRIFVTFSSMFLIFVLGAILFFHQRRNHGPNEDRQAVPEEPCPYSCPREEEGSAIPIQEDYRKPEPAFYPRAKFSRSAETAANLQDPNQLYNELNLGRREEYDVLEKKRARDPEMGGKQQRRRNPQEGVYNALQKDKMAEAYSEIGTKGERRRGKGHDGLYQGLSTATKDTYDALHMQTLAPR
On to B2, for which, in the assay with mouse CD70 (mouse), the IFN-γ (pg/ml), mouse T cells/mCD27-CD3ζ CAR co-cultured with B16/mCD70 was determined as 642000 pg/mL.
